Target: T1, IL13Rα2 on U251-LG target cells (UniProt Q14627 27-380, limits assumed)
T1 sequence (looked up): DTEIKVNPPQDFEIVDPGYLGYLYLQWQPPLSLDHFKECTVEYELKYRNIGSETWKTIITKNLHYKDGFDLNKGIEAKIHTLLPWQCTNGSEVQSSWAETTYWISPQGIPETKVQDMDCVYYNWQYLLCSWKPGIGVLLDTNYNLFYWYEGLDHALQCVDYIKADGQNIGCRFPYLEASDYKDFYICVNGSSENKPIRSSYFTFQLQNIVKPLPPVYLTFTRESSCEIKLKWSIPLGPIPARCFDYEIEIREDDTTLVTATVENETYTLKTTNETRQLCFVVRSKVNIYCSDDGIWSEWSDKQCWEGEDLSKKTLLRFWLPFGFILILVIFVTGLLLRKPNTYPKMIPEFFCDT
Experiment: cell-based or functional assay

B1: anti-IL13Rα2 CAR VLVH (murine) (other)
chain: DIVMTQSHKFISTSVGDRVSITCKASQDVGTAVAWYQQIPGQSPKLLIYSASYRSTGIPDRFTGSGSGTDFSFIISSVQAEDLALYYCQHHYSAPWTFGGGTTLDIKGGGGSGGGGSGGGGSEVQLVESGGDLVRPGGSLQLSCAASGFTFSRNGMSWVRQTPDRRLEWVATVSSGGSYIYYADSVKGRFTISRDNARNTLYLQMSSLKSEDTAMYYCARQGTTALATRFFDVWGAGTTVTVSSFVPVFLPAKPTTTPAPRPPTPAPTIASQPLSLRPEACRPAAGGAVHTRGLDFACDIYIWAPLAGTCGVLLLSLVITLYCNHRNKRGRKKLLYIFKQPFMRPVQTTQEEDGCSCRFPEEEEGGCELRVKFSRSADAPAYQQGQNQLYNELNLGRREEYDVLDKRRGRDPEMGGKPRRKNPQEGLYNELQKDKMAEAYSEIGMKGERRRGKGHDGLYQGLSTATKDTYDALHMQALPPR
killing efficiency (lysis of target cells by luciferase activity, 24 h co-culture, effector-to-target ratio 2:1): > 90%
